Residue numbers refer to the chain shown, from its start.
Experiments:
[1] = target: SARS-CoV-2 Receptor Binding Domain (RBD) protein (SARS-CoV-2, UniProt P0DTC2 319-541)
[2] = target: T1, SARS-CoV-1 Receptor Binding Domain (RBD) protein (SARS-CoV-1, UniProt P59594 306-527); test: SPR; clone listed as COV2 only at the 21st table, row 65, column 3
T1 construct: also called SARS1

[3] = target: T2, MERS Receptor Binding Domain (RBD) protein (MERS virus, UniProt K9N5Q8 367-606); test: as above
T2 construct: also called Middle East Respiratory Syndrome (MERS) virus
T2 sequence: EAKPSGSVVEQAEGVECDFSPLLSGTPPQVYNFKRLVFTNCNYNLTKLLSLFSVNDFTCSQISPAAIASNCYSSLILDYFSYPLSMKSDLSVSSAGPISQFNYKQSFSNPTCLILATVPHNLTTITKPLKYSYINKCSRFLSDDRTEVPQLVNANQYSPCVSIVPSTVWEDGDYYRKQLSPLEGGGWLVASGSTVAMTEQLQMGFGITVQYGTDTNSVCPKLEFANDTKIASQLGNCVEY

[4] = target: T1, SARS-CoV-1 Receptor Binding Domain …; test: SPR; clone listed as COV2 only at the 21st table, row 60, column 3
[5] = target: T2, MERS Receptor Binding Domain (RBD) …; test: as above
[6] = target: T1, SARS-CoV-1 Receptor Binding Domain …; test: SPR; clone listed as COV2 only at the 21st table, row 63, column 3
[7] = target: T2, MERS Receptor Binding Domain (RBD) …; test: as above
[8] = target: T1, SARS-CoV-1 Receptor Binding Domain …; test: SPR; clone listed as COV2 only at the 21st table, row 64, column 3
[9] = target: T2, MERS Receptor Binding Domain (RBD) …; test: as above
[10] = target: T1, SARS-CoV-1 Receptor Binding Domain …; test: SPR; clone listed as COV2 only at the 21st table, row 4, column 3
[11] = target: T2, MERS Receptor Binding Domain (RBD) …; test: as above
[12] = target: T1, SARS-CoV-1 Receptor Binding Domain …; test: SPR; clone listed as COV2 only at the 21st table, row 12, column 3
[13] = target: T2, MERS Receptor Binding Domain (RBD) …; test: as above
[14] = target: T1, SARS-CoV-1 Receptor Binding Domain …; test: SPR; clone listed as COV2 only at the 21st table, row 61, column 3
[15] = target: T2, MERS Receptor Binding Domain (RBD) …; test: as above
[16] = target: T1, SARS-CoV-1 Receptor Binding Domain …; test: SPR; clone listed as COV2 only at the 21st table, row 13, column 3
[17] = target: T2, MERS Receptor Binding Domain (RBD) …; test: as above

B1: COVID19_P21_H03 (scFv, V domains shown)
VH: QVQLVQSGAEVKKPGSSVKVSCKASGYTFTNYGINWVRQAPGQGLEWMGWMNPYSGNTGYAQKFQGRVTITADESTSTAYMELSSLRSEDTAVYYCAVLSGISTPMDVWGQGTLVTVSS
VL: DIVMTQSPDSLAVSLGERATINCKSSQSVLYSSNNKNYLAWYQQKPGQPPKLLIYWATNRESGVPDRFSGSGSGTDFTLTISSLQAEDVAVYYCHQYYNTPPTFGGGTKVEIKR
Kd [1]: 11.6 nM | koff [1]: 0.00113 s⁻¹ | kon [1]: 97200 M⁻¹ s⁻¹ | binding result [2]: no binding (tested: up to 300 nM) | binding result [3]: no binding (tested: up to 300 nM)

B2: COVID19_P10_A09 (scFv, V domains shown)
VH: B1 VH with N31D, G33Y, N35H, Y54N, K63N, V98G, L99G, P105A, M106W
VL: DIVMTQSPDSLAVSLGERATIRCTSSLSLQDRSNNKNYLTWYQQKPGQPPKLLIYWASTRESGVPDRFSGSGSGTDFTLTISSLQAEDVAVYYCQQHYSAPLTFGGGTKVEIKR
Kd [1]: 20.5 nM | koff [1]: 0.00112 s⁻¹ | kon [1]: 54800 M⁻¹ s⁻¹ | binding result [4]: no binding (tested: up to 300 nM) | binding result [5]: no binding (tested: up to 300 nM)

B3: COVID19_P21_B02 (scFv, V domains shown)
VH: B1 VH with Y54N, V98A, L99V
VL: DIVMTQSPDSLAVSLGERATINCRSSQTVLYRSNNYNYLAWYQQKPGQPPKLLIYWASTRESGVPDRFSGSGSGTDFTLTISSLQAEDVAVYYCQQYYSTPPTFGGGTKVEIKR
Kd [1]: 45.5 nM | koff [1]: 0.0127 s⁻¹ | kon [1]: 278000 M⁻¹ s⁻¹ | binding result [6]: no binding (tested: up to 300 nM) | binding result [7]: no binding (tested: up to 300 nM)

B4: COVID19_P21_E04 (scFv, V domains shown)
VH: B1 VH with V37M, Y54N, V98G, L99G
VL: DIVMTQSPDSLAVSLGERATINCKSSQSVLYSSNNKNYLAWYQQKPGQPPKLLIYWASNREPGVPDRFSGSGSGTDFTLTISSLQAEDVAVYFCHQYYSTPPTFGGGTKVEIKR
Kd [1]: 2.15 nM | koff [1]: 0.000588 s⁻¹ | kon [1]: 273000 M⁻¹ s⁻¹ | binding result [8]: no binding (tested: up to 300 nM) | binding result [9]: no binding (tested: up to 300 nM)

B5: COVID19_P22_F04 (scFv, V domains shown)
VH: QVQLVQSGAEVKKPGSSVKVSCKASGGGFITYWIGWVRQAPGQGLEWMGIIYPGDGEARYSQKFQGRVTITADESTSTAYMELSSLRSEDTAVYYCAGGSGISTPMDVWGQGTLVTVSS
VL: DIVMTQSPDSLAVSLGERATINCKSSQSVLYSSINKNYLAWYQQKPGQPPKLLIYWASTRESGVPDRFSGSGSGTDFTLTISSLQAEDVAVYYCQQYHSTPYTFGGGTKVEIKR
Kd [1]: 30.6 nM | koff [1]: 0.0085 s⁻¹ | kon [1]: 280000 M⁻¹ s⁻¹ | binding result [10]: no binding (tested: up to 300 nM) | binding result [11]: no binding (tested: up to 300 nM)

B6: COVID19_P22_H10 (scFv, V domains shown)
VH: B5 VH with I30S, M48V, I50W, Y52N, G54N, D55S, E57A, A58T, R59K, S61A
VL: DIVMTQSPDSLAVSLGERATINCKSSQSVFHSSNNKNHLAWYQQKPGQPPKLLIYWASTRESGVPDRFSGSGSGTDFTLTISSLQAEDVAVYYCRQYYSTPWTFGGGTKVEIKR
Kd [1]: 7.59 nM | koff [1]: 0.00057 s⁻¹ | kon [1]: 75000 M⁻¹ s⁻¹ | binding result [12]: no binding (tested: up to 300 nM) | binding result [13]: no binding (tested: up to 300 nM)

B7: COVID19_P21_B09 (scFv, V domains shown)
VH: B5 VH with G27Y, G28T, I30T, T31G, Y32H, W33Y, I34M, G35H, G56S
VL: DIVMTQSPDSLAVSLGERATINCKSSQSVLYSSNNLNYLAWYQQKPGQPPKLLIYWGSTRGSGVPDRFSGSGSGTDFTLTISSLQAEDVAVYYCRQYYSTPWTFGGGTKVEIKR
Kd [1]: 3.71 nM | koff [1]: 0.000207 s⁻¹ | kon [1]: 55900 M⁻¹ s⁻¹ | binding result [14]: no binding (tested: up to 300 nM) | binding result [15]: no binding (tested: up to 300 nM)

B8: COVID19_P21_E12 (scFv, V domains shown)
VH: QVQLVQSGAEVKKPGSSVKVSCKASGGTFISYAISWVRQAPGQGLEWMGGIIPTLGTYNYAQKFQGRVTITADESTSTAYMELSSLRSEDTAVYYCAGSWGISTPMDVWGQGTLVTVSS
VL: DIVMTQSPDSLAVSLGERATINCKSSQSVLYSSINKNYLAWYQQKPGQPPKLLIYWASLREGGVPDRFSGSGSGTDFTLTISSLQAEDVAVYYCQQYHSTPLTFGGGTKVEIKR
notes: also called COVID19_P21_El2
Kd [1]: 8.82 nM | koff [1]: 0.000586 s⁻¹ | kon [1]: 66500 M⁻¹ s⁻¹ | binding result [16]: no binding (tested: up to 300 nM) | binding result [17]: no binding (tested: up to 300 nM)

Reference: patent US11034762 (CENTIVAX, dated 2021)
